The text below walks through data of patent US8853165B2, “Peptide having the ability to regenerate bone tissue and for binding to apatite” (Nano Intelligent Biomedical Engineering Corporation Co., …, priority 2010, dated 2014).

The test system of series [1] is rabbit calvarial defect. The series is described as follows: In vivo stability of FITC-labeled peptide on bone mineral grafted into calvarial defect (confocal microscope, blood fluorometer). Particulars: 10 mg and 20 mg bone mineral grafted, blood before and 1, 3, 7, 14, 21, 28 days after graft. On the procedure: In order to test in vivo stability, 10 equivalents of fluorescein isothiocyanate (FITC) was allowed to bind to the N-terminus by using triethylamine (1 ml per 1 g of resin) at the time of preparing the peptide of SEQ ID NO: 40. The peptide synthesis was confirmed by measuring the molecular weight thereof through MALDI-TOF.
The peptide of SEQ ID NO: 40, labeled with FITC, was precipitated in the bovine bone mineral (OCS-B, NIBEC). The resultant bone mineral was grafted into the rabbit calvarial defect, and then scarified after 4 weeks. After that, the bone mineral grafted into the calvarial defect was observed by using a confocal microscope (Olympus, Japan). The bone mineral with a binding peptide of SEQ ID NO: 40, labeled with FITC, in 10 mg and 20 mg was grafted into the rabbit calvarial defect. The blood was taken before the graft and 1 day, 3 days, 7 days, 14 days, 21 days, and 28 days after the graft, and then it was determined by using the Fluorometer whether or not the peptide was freed into the systemic blood.

Series [2] can be described thus: Peptide release (elution) test from bone graft material in PBS at 37° C., HPLC. As to conditions: for Release of Peptide from Bone Mineral: PBS, 37° C., Lot Nos. 1-3. In kind it is physicochemical, bovine. On the procedure:
1200 mg of the peptide prepared in Example 1 was dissolved in 1 mL of tertiary distilled water, and then 4 g of bovine bone mineral (OCS-B, NIBEC) was added thereto, followed by deposition for 24 hours and then freeze-drying.
4 g of a bone graft material with a binding peptide was input to 20 mL of PBS, and then the peptide release test was conducted at 37° C. After 7 days, 20 Ml of elution solvent that was initially introduced was completely removed, and then 20 Ml of new elution solvent was again added to proceed elution at 37° C. In the above manner, the peptide elution test was conducted for 14 days, 28 days, 56 days, 84 days, and 100 days. After completion of elution, the bone graft material was collected and the peptide content was measured.
3 g of the bone graft material with a binding peptide was precisely weighed, and then made into powder. About 2 g of the powder corresponding to 160 mg of peptide was precisely weighed, which was then input to 40 mL of Solution A as mobile phase, followed by sonication for 1 hour. After that, extraction was conducted while stirring at 37±2° C. for 24 hours, and then the upper layer of the extracted solvent was separated by centrifuging at 3000 rpm for 10 minutes and then filtration with a 0.22 μm millipore filter. 1 mL thereof was taken therefrom, and mixed with 3 mL of Solution A, which was then filtered through a 0.22 μm millipore filter, then the filtrate was used as the test liquid.
The peptide standard product was dried in the desiccator (silica gel) for 5 hours, and then 10 mg thereof was precisely weighed, which was then dissolved by the addition of Solution A as a mobile phase, and then exactly 10 mL thereof was used as a standard liquid.
The test liquid and the standard liquid each 10 μl were tested under the following operating conditions for liquid chromatography, to obtain test liquid and standard liquid peak areas, AT and AS. Amount of peptide (mg)=amount of peptide standard product (mg)×
Meter: Analytical HPLC (Shimadzu, Japan)
Column: Filled with C18-bonded silica gel with 5 μm size (length: […], inner diameter: 4.6 mm)
Mobile phase: 0.1% trifluoroacetic acid/DDW (Solution A) 0.098% trifluoroacetic acid/acetonitrile (Solution B)
Detector: UV absorption spectrometer (measurement wavelength: 230 nm)
Column temperature: Constant at approximately 40° C.

The subject of series [3] is rabbit calvarial defect. Description: In vivo bone regeneration capacity of peptide-bound bone graft material in calvarial defect. Also noted: species or system rabbit (NewZealand white rabbit). Particulars: peptide bound to bone graft material, 50 mg per 8 mm defect, 2 weeks after graft, histology. An excerpt:
Each of the peptides of SEQ ID NO: 35, SEQ ID NO: 36, and SEQ ID NO: 40, prepared in Example 1, was allowed to bind to a bone graft material by the same method as Example 2, which was then grafted into the rabbit calvarial defect. The bone regeneration capacity thereof was confirmed. An 8 mm-diameter circular bone defect was formed in the calvarial region of the anesthetized rabbit (NewZealand white rabbit, specific name: cuniculus). The bone graft material and the peptide-containing bone graft material were grafted into the bone defect with 50 mg for each defect, and the periosteum and skin were doubly sutured. The animal was sacrificed 2 weeks after the graft, and the taken sample was fixed in the formaline solution. The tissue was subjected to embedding to prepare a 20 μm-thick specimen. The prepared specimen was stained with basic fuchsin and toluidine blue to produce a nondemineralized sample. The thus produced sample was observed by an optical microscope, and photographed.

Values joined by “and” are separate entries in the source; they are usually repeats but may differ in a detail not shown here. Identical values can stand only once. Residues, ends and D or L forms follow the SMILES beside them. *: point of attachment. FITC = O=C1OC2(c3ccc(O)cc3Oc3cc(O)ccc32)c2ccc(NC(=S)*)cc21

As for `CC[C@H](C)[C@H](NC(=O)[C@H](CC(=O)O)NC(=O)[C@@H]1CCCN1C(=O)[C@H](CCCNC(=N)N)NC(=O)[C@H](CCCNC(=N)N)NC(=O)[C@H](Cc1ccccc1)NC(=O)[C@H](CCCCN)NC(=O)[C@H](CCCCN)NC(=O)[C@H](CO)NC(=O)[C@H](CCCCN)NC(=O)[C@H](CO)NC(=O)[C@H](CCCNC(=N)N)NC(=O)[C@H](CC(C)C)NC(=O)CNC(=O)[C@H](Cc1ccc(O)cc1)NC(=O)[C@H](CCC(=O)O)NC(=O)[C@H](CCCNC(=N)N)NC(=O)[C@H](CO)NC(=O)[C@H](Cc1ccccc1)NC(=O)[C@H](CCC(=O)O)NC(=O)[C@H](Cc1c[nH]cn1)NC(=O)[C@@H]1CCCN1C(=O)[C@@H](NC(=O)[C@@H]1CCCN1C(=O)[C@H](CC(C)C)NC(=O)[C@@H](NC(=O)[C@H](CO)NC(=S)Nc1ccc2c(c1)C(=O)OC21c2ccc(O)cc2Oc2cc(O)ccc21)[C@@H](C)O)[C@@H](C)CC)C(=O)N[C@@H](CCC(N)=O)C(=O)N[C@@H](Cc1ccc(O)cc1)C(=O)N1CCC[C@H]1C(=O)N[C@@H](CC(=O)O)C(=O)N[C@@H](C)C(=O)N[C@H](C(N)=O)[C@@H](C)O` [SEQ ID NO: 40, labeled with FITC] ({FITC}-STLPIPHEFSREYGLRSKSKKFRRPDIQYPDAT-NH2), in series [1], the “RFI values of blood (peptide freed into systemic blood)” value is “no differences as compared with the values before the graft”.

In the case of “NH2-STLPIPHEFSRE-YGLRSKSKKFRRPDIQYPDAT-COONH2 (H-STLPIPHEFSREYGLRSKSKKFRRPDIQYPDAT-NH2) [SEQ ID NO: 40]”, the “Content of Peptide Remaining in Bone Mineral” value in series [2] (after ending the 100 day elution, Lot Nos. 1, 2, 3) was 9.2 mg and 9.18 mg and 9.78 mg and 9.19 mg. In addition, the “Release of Peptide from Bone Mineral” value in series [2] (day 7), in series [2] (day 14), in series [2] (day 28), in series [2] (day 56), in series [2] (day 84) and in series [2] (day 100) was 0 mg throughout. In series [2] (elution test for 100 days, Lot No. 1, 2 and 3, retention time 14.196 min), the “peak of the peptide in the elution liquid” value was “not observed”. Further, the bone regeneration effect entry in series [3] is “remarkably increased bone regeneration capacity as compared with A and B”.

As for “STLPIPHEFSRE (apatite binding peptide) [SEQ ID NO: 36]”, the bone regeneration effect entry in series [3] was “smallest”.

With “YGLRSKSKKFRRPDIQYPDAT (partial peptide of bone sialoprotein) [SEQ ID NO: 35]”, the bone regeneration effect entry in series [3] was “increased bone regeneration effect as compared with A”.
